Experimental data as given in patent publication WO2019076277A1 (dated 2019).

T1: human LAG-3 protein (human, UniProt P18627 23-450, limits assumed)
T1 construct: also called human LAG-3 antigen; LAG-3 antigen
T1 sequence (looked up): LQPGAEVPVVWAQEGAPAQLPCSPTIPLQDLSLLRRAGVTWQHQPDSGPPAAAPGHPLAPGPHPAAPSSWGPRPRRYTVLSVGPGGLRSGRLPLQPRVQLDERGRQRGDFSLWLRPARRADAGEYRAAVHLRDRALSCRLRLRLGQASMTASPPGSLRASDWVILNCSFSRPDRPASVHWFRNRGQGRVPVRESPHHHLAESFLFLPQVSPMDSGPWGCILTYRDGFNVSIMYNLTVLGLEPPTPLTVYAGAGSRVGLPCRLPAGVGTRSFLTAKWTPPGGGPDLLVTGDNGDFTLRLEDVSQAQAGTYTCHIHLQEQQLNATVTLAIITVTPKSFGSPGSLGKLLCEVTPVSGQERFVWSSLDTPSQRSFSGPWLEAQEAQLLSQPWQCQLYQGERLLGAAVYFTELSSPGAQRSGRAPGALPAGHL

T2: human LAG-3 full-length protein overexpressed on CHO-S cells (human, UniProt P18627 23-525)
T2 construct: whole, on cells; also called full-length LAG-3; CHO-S cells overexpressing the human LAG-3 full-length protein
T2 sequence (looked up): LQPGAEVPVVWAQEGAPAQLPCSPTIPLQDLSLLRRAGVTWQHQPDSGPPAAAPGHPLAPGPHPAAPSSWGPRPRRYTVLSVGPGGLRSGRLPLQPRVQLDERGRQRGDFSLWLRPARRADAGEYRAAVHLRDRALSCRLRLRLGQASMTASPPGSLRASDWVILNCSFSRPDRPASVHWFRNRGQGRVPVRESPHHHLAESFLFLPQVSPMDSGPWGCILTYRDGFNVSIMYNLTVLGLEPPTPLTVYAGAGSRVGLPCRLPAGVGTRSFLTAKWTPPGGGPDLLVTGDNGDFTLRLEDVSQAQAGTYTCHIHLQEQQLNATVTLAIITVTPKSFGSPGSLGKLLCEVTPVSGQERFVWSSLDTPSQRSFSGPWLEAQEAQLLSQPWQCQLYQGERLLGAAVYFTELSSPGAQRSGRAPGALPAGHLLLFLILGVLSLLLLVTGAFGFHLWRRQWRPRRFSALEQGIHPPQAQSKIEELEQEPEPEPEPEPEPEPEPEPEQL


Tests used:
human LAG-3 protein = target: T1, human LAG-3 protein; assay: binding ELISA on human LAG-3 protein (Test Example 1)
[1] = target: T2, human LAG-3 full-length protein …; assay: cell ELISA on CHO-S cells overexpressing human LAG-3 (Test Example 2)

| Binder | binding result (human LAG-3 protein) | binding result [1] |
| --- | --- | --- |
| mAb303 (antibody, V domains shown, also called LAG-3 antibody mAb303; hybridoma clone mAb303) VH: EVQLQQSGPVLVKPGASVKMSCKASGYTLTDYYMNWVKQSHGKSLEWIGVINPYNGDTAYNQKFKGKATLTVDKSSNTAYMEINSLTSEDSAVYYCTRDDGYYDYYFDVWGTGTTVTVSS VL: DIQMTQSPSSLSASLGERVILTCRASQDIGSRLNWLQQGPDGTFKRLIYATSTLDSGVPKRFSGSRSGSDFSLTISSLESEDFVDYYCLQLASSPPTFGGGTKLEIK | binds | binds |
| mAb229 (antibody, V domains shown, also called LAG-3 antibody mAb229; hybridoma clone mAb229) VH: QIQLVQSGPELKKPGETVKISCKASGYTFTTSGMSWVKQAPGKGLKWMGWINTYSGVPTYADDFKGRFAFSLETSASTAYLQINNLKNEDTATYFCARDNYDARDVYYYAMDYWGQGTSVTVSS VL: DIQMTQSPASLSVSVGETVTITCRASENIYSNLAWYQQKQGKSPQLLVYAATNLADGVPSRFSGSGSGTQYSLKINSLQSEDFGSYYCQHFWITPWTFGGGTKLEIK | binds | binds |
